Source: US20180155451A1 (published 2018)

T1: FcγRIIa H (human, UniProt P12318 34-217)
T1 construct: extracellular domain; Soluble His-tagged extracellular domain expressed in FreeStyle293 cells; also called FcγRIIa type H; FcgRIIa H; not shown: His tag attached to the C terminus
T1 sequence (looked up): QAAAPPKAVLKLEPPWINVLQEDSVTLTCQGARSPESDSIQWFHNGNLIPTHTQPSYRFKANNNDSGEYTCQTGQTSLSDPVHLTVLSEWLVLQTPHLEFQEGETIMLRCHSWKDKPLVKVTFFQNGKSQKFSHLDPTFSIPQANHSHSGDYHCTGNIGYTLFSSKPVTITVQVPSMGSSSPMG

T2: FcγRIIb (human, UniProt P31994 43-217)
T2 construct: extracellular domain; Soluble His-tagged extracellular domain expressed in FreeStyle293 cells; also called FcgRIIb; 2b; not shown: His tag attached to the C terminus
T2 sequence (looked up): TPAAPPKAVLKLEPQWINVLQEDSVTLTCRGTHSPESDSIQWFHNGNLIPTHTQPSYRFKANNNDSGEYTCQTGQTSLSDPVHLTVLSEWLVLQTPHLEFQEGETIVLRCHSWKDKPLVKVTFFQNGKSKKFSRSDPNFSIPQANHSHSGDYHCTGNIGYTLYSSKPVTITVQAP

B1: GpH7-A5/GpH7-B3 variant A327_03V/GpL16-k0 (antibody, human IgG1, kappa)
heavy 1: not shown
heavy 2: not shown
light: DIVMTQSPLSLPVTPGEPASISCQASESLVHSNRNTYLHWYLQKPGQSPQLLIYKVSNRFSGVPDRFSGSGSGTDFTLKISRVEAEDVGVYYCSQNTHVPPTFGQGTKVEIERTVAAPSVFIFPPSDEQLKSGTASVVCLLNNFYPREAKVQWKVDNALQSGNSQESVTEQDSKDSTYSLSSTLTLSKADYEKHKVYACEVTHQGLSSPVTKSFNRGEC
notes: Heterodimerized anti-glypican-3 IgG1; mutation in the GpH7-B3 H chain only; also called He Ab
B2: GpH7-A5/GpH7-B3 variant N325_13S/GpL16-k0 (antibody, human IgG1, kappa)
heavy 1: not shown
heavy 2: not shown
light: B1 light
notes: as for B1
B3: GpH7-A5/GpH7-B3 variant N325_14T/GpL16-k0 (antibody, human IgG1, kappa)
heavy 1: not shown
heavy 2: not shown
light: B1 light
notes: as for B1
B4: GpH7-A5/GpH7-B3 variant N325_20W/GpL16-k0 (antibody, human IgG1, kappa)
heavy 1: not shown
heavy 2: not shown
light: B1 light
notes: as for B1
B5: GpH7-A5/GpH7-B3 variant L328_04F/GpL16-k0 (antibody, human IgG1, kappa)
heavy 1: not shown
heavy 2: not shown
light: B1 light
notes: as for B1
B6: GpH7-A5/GpH7-B3 variant L328_09D/GpL16-k0 (antibody, human IgG1, kappa)
heavy 1: not shown
heavy 2: not shown
light: B1 light
notes: as for B1
B7: GpH7-A5/GpH7-B3 variant A327_07I/GpL16-k0 (antibody, human IgG1, kappa)
heavy 1: not shown
heavy 2: not shown
light: B1 light
notes: as for B1
B8: GpH7-A5/GpH7-B3 variant L328_15Y/GpL16-k0 (antibody, human IgG1, kappa)
heavy 1: not shown
heavy 2: not shown
light: B1 light
notes: as for B1
B9: GpH7-A5/GpH7-B3 variant A327_14T/GpL16-k0 (antibody, human IgG1, kappa)
heavy 1: not shown
heavy 2: not shown
light: B1 light
notes: as for B1
B10: GpH7-A5/GpH7-B3 variant L328_10E/GpL16-k0 (antibody, human IgG1, kappa)
heavy 1: not shown
heavy 2: not shown
light: B1 light
notes: as for B1
B11: GpH7-A5/GpH7-B3 variant A330_05P/GpL16-k0 (antibody, human IgG1, kappa)
heavy 1: not shown
heavy 2: not shown
light: B1 light
notes: as for B1
B12: GpH7-A5/GpH7-B3 variant A327_09D/GpL16-k0 (antibody, human IgG1, kappa)
heavy 1: not shown
heavy 2: not shown
light: B1 light
notes: as for B1
B13: GpH7-A5/GpH7-B3 variant A327_10E/GpL16-k0 (antibody, human IgG1, kappa)
heavy 1: not shown
heavy 2: not shown
light: B1 light
notes: as for B1
B14: GpH7-A5/GpH7-B3 variant L328_03V/GpL16-k0 (antibody, human IgG1, kappa)
heavy 1: not shown
heavy 2: not shown
light: B1 light
notes: as for B1
B15: GpH7-A5/GpH7-B3 variant I332_10E/GpL16-k0 (antibody, human IgG1, kappa)
heavy 1: not shown
heavy 2: not shown
light: B1 light
notes: as for B1
B16: GpH7-A5/GpH7-B3 variant N325_15Y/GpL16-k0 (antibody, human IgG1, kappa)
heavy 1: not shown
heavy 2: not shown
light: B1 light
notes: as for B1
B17: GpH7-A5/GpH7-B3 variant N325_16H/GpL16-k0 (antibody, human IgG1, kappa)
heavy 1: not shown
heavy 2: not shown
light: B1 light
notes: as for B1
B18: GpH7-A5/GpH7-B3 variant L328_07I/GpL16-k0 (antibody, human IgG1, kappa)
heavy 1: not shown
heavy 2: not shown
light: B1 light
notes: as for B1
B19: GpH7-A5/GpH7-B3 variant L328_05P/GpL16-k0 (antibody, human IgG1, kappa)
heavy 1: not shown
heavy 2: not shown
light: B1 light
notes: as for B1
B20: GpH7-A5/GpH7-B3 variant L328_20W/GpL16-k0 (antibody, human IgG1, kappa)
heavy 1: not shown
heavy 2: not shown
light: B1 light
notes: as for B1

The binders below were run against T1, FcγRIIa H (assay: SPR (Biacore); He/Con_2aH divided by He/Con_2b (FcγRIIb) of the same antibody).
Procedure: The heterodimerized antibodies He Abs in which one of the H chains was introduced with an alteration were assayed for their binding activities to each activating FcγR and inhibitory FcγR according to the method described in Example 4. […] The activating FcγRs in FIGS. 26, 27, 28, and 29 are FcγRIa, FcγRIIa (R), FcγRIIa (H), and FcγRIIIa, respectively.
(§1) Analysis of interaction between objective antibody and the FcγR was carried out using Biacore T100 (GE Healthcare). HBS-EP+ (GE Healthcare) was used as the running buffer, and the measurement temperature was set to 25° C. Chips produced by immobilizing the antigen peptide by the amine coupling method to a Series S Sencor Chip CM5 (GE Healthcare), or alternatively, chips produced by allowing preliminarily biotinylated antigen peptides to interact with and immobilize onto a Series S Sensor Chip SA (certified) (GE Healthcare) were used. Antibodies of interest were captured onto an antigen peptide-immobilized chip, and allowed to interact to each FcγR diluted with running buffer. To regenerate and repeatedly use the chip, the antibodies captured on the chip were washed off by reacting 10 mM glycine-HCl, pH 1.5.

| He_2aH/2b | Binder |
| --- | --- |
| 0.54 ratio | B1 |
| 0.45 ratio | B2 |
| 0.68 ratio | B3 |
| 0.28 ratio | B4 |
| 0.33 ratio | B5 |
| 0.29 ratio | B6 |
| 0.46 ratio | B7 |
| 0.47 ratio | B8 |
| 0.51 ratio | B9 |
| 0.32 ratio | B10 |
| 0.63 ratio | B11 |
| 0.61 ratio | B12 |
| 0.65 ratio | B13 |
| 0.78 ratio | B14 |
| 0.76 ratio | B15 |
| 0.41 ratio | B16 |
| 0.68 ratio | B17 |
| 0.59 ratio | B18 |
| 0.7 ratio | B19 |
| 0.48 ratio | B20 |

These binders were tested against T1, FcγRIIa H (assay: SPR (Biacore), captured antibody, FcγR analyte; relative to GpH7-A5/GpH7-B3/GpL16-k0 = 100).
Procedure: as §1
(§2) The FcγR-binding activity of each antibody was assessed primarily using as an indicator the FcγR-binding activity and dissociation constant for FcγR.

| He/Con_2aH | Binder |
| --- | --- |
| 51 relative (control = 100) | B1 |
| 79.7 relative (control = 100) | B2 |
| 62.7 relative (control = 100) | B3 |
| 47.2 relative (control = 100) | B4 |
| 71.7 relative (control = 100) | B5 |
| 58.5 relative (control = 100) | B6 |
| 58.4 relative (control = 100) | B7 |
| 90 relative (control = 100) | B8 |
| 45.6 relative (control = 100) | B9 |
| 55.5 relative (control = 100) | B10 |
| 85.7 relative (control = 100) | B11 |
| 105 relative (control = 100) | B12 |
| 91.3 relative (control = 100) | B13 |
| 97.8 relative (control = 100) | B14 |
| 108 relative (control = 100) | B15 |
| 41.2 relative (control = 100) | B16 |
| 48 relative (control = 100) | B17 |
| 93.9 relative (control = 100) | B18 |
| 45.4 relative (control = 100) | B19 |
| 113 relative (control = 100) | B20 |

The binders below were run against T2, FcγRIIb in the same assay as above.
Procedure: as §1, §2

| He/Con_2b | Binder |
| --- | --- |
| 94.7 relative (control = 100) | B1 |
| 177 relative (control = 100) | B2 |
| 91.6 relative (control = 100) | B3 |
| 169 relative (control = 100) | B4 |
| 219 relative (control = 100) | B5 |
| 199 relative (control = 100) | B6 |
| 127 relative (control = 100) | B7 |
| 193 relative (control = 100) | B8 |
| 89.4 relative (control = 100) | B9 |
| 172 relative (control = 100) | B10 |
| 137 relative (control = 100) | B11 |
| 172 relative (control = 100) | B12 |
| 140 relative (control = 100) | B13 |
| 126 relative (control = 100) | B14 |
| 142 relative (control = 100) | B15 |
| 99.5 relative (control = 100) | B16 |
| 70.1 relative (control = 100) | B17 |
| 160 relative (control = 100) | B18 |
| 65.1 relative (control = 100) | B19 |
| 235 relative (control = 100) | B20 |
